Test results: publication PMC3050080

How the values were obtained:
TIA-1 RRM23 = target: T1, TIA-1 RRM23 (UniProt P31483 104-288); experiment: fluorescence anisotropy
T1 sequence: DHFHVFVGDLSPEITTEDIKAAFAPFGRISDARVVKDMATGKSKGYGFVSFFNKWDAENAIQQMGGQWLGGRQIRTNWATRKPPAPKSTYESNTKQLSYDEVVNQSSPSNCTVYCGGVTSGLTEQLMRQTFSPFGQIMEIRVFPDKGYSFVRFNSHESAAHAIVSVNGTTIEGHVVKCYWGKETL

SXL RRM12 = target: T2, SXL RRM12 (UniProt P19339 122-294); experiment: fluorescence anisotropy
T2 sequence: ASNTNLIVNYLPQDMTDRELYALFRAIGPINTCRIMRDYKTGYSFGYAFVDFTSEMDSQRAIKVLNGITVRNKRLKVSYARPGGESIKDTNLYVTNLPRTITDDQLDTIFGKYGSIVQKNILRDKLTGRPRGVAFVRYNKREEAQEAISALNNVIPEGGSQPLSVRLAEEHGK

B1: U20 (ssRNA)
RNA: UUUUUUUUUUUUUUUUUUUU
Kd (TIA-1 RRM23): 33 ± 6 nM | Kd (SXL RRM12): 7 ± 3 nM
